Among the data in US20230012273A1 (Boehringer Ingelheim, published 2023) are EC50, binding result and Kd values, retold here.

As a reminder, the EC50 is the concentration needed to bring the measured effect to its halfway point. What is called Kd is a measure of binding affinity in units of concentration.

Experiment [1] has as its target T1, full-length human SIRPγ E→D on Expi-CHO cells (human, UniProt Q9P1W8 29-387).
T1 construct: the entry already carries the change (PENV to PDNV)
The experiment is described as follows: flow cytometry, Expi-CHO cells. How it is done:
(§1) Expi-CHO parental cells are transduced with lentiviruses containing either full-length wild-type human SIRPγ ([…]) or full-length human SIRPγ with amino acid point mutations (Table 64) and sorted to achieve matching expression levels. These cells are blocked with donkey IgG and incubated on ice with increasing concentrations of antibodies for 60 minutes, washed and stained with AF647-conjugated donkey F(ab′)₂ anti-human IgG antibodies. Stained cells are washed, fixed, and analyzed by flow cytometry. Median fluorescent intensity is determined and used as a measure of antibody binding.
On the technique in general: A flow cytometer gives signals particle by particle.

Experiment [2] addresses T2, full-length human SIRPγ (NP_061026.2) on cells (human, UniProt Q9P1W8 29-387).
T2 construct: also called CHO-hSIRPγ; γ WT
The experiment is described as follows: flow cytometry, Expi-CHO cells. On the procedure:
as §1

Experiment [3] addresses T3, full-length cynomolgus SIRPα (XP_015313155) on CHO cells, clone P3HD10 (cynomolgus monkey, UniProt A0A2K5VYQ9 31-507).
T3 construct: whole, on cells; also called XP_015313155 Clone P3HD10
T3 sequence: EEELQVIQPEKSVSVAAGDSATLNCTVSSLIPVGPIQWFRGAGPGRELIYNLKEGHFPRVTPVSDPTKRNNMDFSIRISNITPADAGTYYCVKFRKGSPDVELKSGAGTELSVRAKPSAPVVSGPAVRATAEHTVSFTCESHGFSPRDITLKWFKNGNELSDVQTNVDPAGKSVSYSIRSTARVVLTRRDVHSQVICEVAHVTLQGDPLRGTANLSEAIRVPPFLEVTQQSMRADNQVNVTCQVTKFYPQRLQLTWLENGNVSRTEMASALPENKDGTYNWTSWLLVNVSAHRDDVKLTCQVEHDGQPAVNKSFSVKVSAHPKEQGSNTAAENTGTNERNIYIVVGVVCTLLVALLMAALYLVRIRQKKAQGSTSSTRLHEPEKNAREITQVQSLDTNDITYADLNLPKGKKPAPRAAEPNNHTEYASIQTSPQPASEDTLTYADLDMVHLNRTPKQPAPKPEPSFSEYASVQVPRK
Nature of the experiment: flow cytometry, CHO cells. On the procedure: Antibody binding to cells expressing cynomolgus (cyno) SIRPα was evaluated by flow cytometry. CHO-K1 cells expressing full-length cyno SIRPα; derived from protein sequence accession numbers (A) EGM-02252; (B) XP_015313155; or (C) NP_001271679, are blocked with donkey IgG and incubated on ice with increasing concentrations of antibodies for 60 minutes, washed and stained with AF647-conjugated donkey F(ab′)₂ anti-human IgG secondary reagent. Cells are washed, fixed, and analyzed by flow cytometry. Median fluorescent intensity is determined and used as a measure of antibody binding.

Experiment [4] has as its target T4, recombinant human SIRPγ extracellular domain (ECD)/His protein (NP_061026.2) (human, UniProt Q9P1W8 29-360).
T4 construct: coated on ELISA plates; also called recombinant hSIRPγ; not shown: His-tag
The experiment is described as follows: ELISA, coated SIRPγ ECD/His. Background: An ELISA detects its analyte on a solid surface through an enzyme-linked reagent.

Experiment [5] addresses T2, full-length human SIRPγ (NP_061026.2) …. The experiment is described as follows: flow cytometry, CHO cells.
Experiment [6] shares this target. The experiment is described as follows: flow cytometry, primary CD3+ T cells. On the procedure: Antibody binding to primary human T cells expressing endogenous SIRPγ is evaluated by flow cytometry. Human peripheral blood mononuclear cells (PBMCs) are blocked with donkey IgG and incubated on ice with increasing concentrations of antibody for 60 minutes, washed and stained with AF647-conjugated donkey F(ab′)₂ anti-human IgG secondary reagent. […] Cells are washed, fixed, and analyzed by flow cytometry. Median fluorescent intensity of CD3+ gated population is determined and used as a measure of antibody binding.

The target of experiment [7] is T5, full-length human SIRPβL (NP_001129316.1) on cells (human, UniProt Q5TFQ8 30-398).
T5 construct: one molecule for U937 SIRPα-KO transfectants (NP_001129316.1) and Expi-CHO transfectants (Q5TFQ8); also called SIRPβ1v3; βL WT
T5 sequence (Q5TFQ8 30-398): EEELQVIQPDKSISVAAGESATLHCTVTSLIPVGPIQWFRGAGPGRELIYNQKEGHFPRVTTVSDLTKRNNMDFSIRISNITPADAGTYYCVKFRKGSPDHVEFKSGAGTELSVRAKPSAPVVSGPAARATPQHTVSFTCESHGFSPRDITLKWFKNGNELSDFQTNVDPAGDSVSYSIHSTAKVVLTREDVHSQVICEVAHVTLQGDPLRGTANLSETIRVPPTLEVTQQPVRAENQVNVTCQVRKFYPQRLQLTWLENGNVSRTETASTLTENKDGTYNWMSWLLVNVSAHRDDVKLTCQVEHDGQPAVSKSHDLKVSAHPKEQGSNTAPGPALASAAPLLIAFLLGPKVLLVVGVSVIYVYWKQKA
Nature of the experiment: flow cytometry, Expi-CHO cells expressing full-length wild-type human SIRPβL. On the procedure: Expi-CHO parental cells are transduced with lentiviruses containing either full-length wild-type human SIRPβL (Q5TFQ8) or full-length human SIRPβL with a single amino acid point mutation (Table 62) and sorted to achieve matching expression levels. These cells are blocked with donkey IgG and incubated on ice with increasing concentrations of antibodies for 60 minutes, washed and stained with AF647-conjugated donkey F(ab′)₂ anti-human IgG antibodies. Stained cells are washed, fixed, and analyzed by flow cytometry. Median fluorescent intensity is determined and used as a measure of antibody binding.
A single amino acid substitution (H→D) introduced within the loop region maintained, strengthened, or facilitated antibody binding to these cells (FIG. 34B, Table 63).

In experiment [8] the target is T6, human SIRPβ1 extracellular domain + His-tag (NP_006056.2) (human, UniProt O00241 30-371).
T6 construct: also called hSIRPβ1; HuSIRPβ1
T6 sequence (O00241 other isoform, or with tags, fused parts or gaps): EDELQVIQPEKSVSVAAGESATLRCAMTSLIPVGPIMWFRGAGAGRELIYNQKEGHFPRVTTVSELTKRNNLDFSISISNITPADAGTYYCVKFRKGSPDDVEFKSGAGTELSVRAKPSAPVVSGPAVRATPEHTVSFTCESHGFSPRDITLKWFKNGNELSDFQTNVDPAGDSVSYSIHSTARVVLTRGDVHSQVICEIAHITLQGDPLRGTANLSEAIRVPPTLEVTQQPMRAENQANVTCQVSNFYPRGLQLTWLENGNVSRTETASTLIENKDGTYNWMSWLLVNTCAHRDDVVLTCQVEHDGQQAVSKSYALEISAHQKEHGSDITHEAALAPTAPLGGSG
Nature of the experiment: SPR, Ab captured, ECD-His analyte. In short, it runs like this:
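SPR; Ab capture surface, ethanolamine-deactivated (1M, 420 s, 10 μl/min). Analyte: SIRP ECD+His, 2-fold dilution series in 1×HBS-EP+. Inject 300 s @ 30 μl/min; dissoc. 600 s.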
A general note: Surface plasmon resonance follows binding to a sensor surface in real time, without labels.

Experiment [9] deals with T2, full-length human SIRPγ (NP_061026.2) …. The experiment is described as follows: flow cytometry, CHO cells; CHO cells expressing hSIRPγ; n = 1. How it is done: Antibody binding to cells expressing human SIRPγ(NP_061026.2) is evaluated by flow cytometry. SIRPγ-expressing CHO cells are blocked with donkey IgG and incubated on ice with increasing concentrations of antibody for 60 minutes, washed and stained with AF647-conjugated donkey F(ab′)₂ anti-human IgG secondary reagent. Cells are washed, fixed, and analyzed by flow cytometry. Median fluorescent intensity is determined and used as a measure of antibody binding.

T2 sequence (Q9P1W8 29-387): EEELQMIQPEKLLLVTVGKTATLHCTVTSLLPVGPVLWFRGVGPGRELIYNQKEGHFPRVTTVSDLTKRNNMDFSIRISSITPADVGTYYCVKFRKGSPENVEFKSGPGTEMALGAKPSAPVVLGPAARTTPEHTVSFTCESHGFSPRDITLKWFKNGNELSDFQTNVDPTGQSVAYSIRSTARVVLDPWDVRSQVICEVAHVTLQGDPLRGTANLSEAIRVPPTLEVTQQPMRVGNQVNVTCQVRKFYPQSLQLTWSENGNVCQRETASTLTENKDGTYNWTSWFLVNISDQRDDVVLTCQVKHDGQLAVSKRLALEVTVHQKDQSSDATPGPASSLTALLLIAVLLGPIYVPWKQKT
T1 sequence (Q9P1W8 29-387 E128D): as the sequence (Q9P1W8 29-387) above, with E100D counted along it
T4 sequence (Q9P1W8 29-360): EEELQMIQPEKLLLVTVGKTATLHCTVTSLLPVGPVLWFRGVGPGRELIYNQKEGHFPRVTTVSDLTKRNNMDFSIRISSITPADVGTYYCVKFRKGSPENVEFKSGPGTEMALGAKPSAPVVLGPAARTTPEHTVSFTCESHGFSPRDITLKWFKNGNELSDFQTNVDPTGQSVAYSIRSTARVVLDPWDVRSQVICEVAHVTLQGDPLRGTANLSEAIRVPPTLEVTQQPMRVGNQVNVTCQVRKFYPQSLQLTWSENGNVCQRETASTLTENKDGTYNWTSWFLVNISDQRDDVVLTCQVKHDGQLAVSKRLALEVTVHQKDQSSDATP

B1: Anti-SIRPα antibody KWAR23 (antibody, V domains shown)
VH: EVQLQQSGAELVKPGASVKLSCTASGFNIKDYYIHWVQQRTEQGLEWIGRIDPEDGETKYAPKFQDKATITADTSSNTAYLHLSSLTSEDTAVYYCARWGAYWGQGTLVTVSS
VL: QIVLTQSPAIMSASPGEKVTLTCSASSSVSSSYLYWYQQKPGSSPKLWIYSTSNLASGVPARFSGSGSGTSYSLTISSMEAEDAASYFCHQWSSYPRTFGAGTKLELK
Regarding B1, the EC50 was 300 pM in [1]; 113 pM in experiment [2]; 500 pM in experiment [3]; 100 pM in experiment [4]; 2700 pM in [5]; 30 pM in experiment [6].

B2: Antibody A10 (antibody, human IgG1, kappa, L234A L235A)
heavy: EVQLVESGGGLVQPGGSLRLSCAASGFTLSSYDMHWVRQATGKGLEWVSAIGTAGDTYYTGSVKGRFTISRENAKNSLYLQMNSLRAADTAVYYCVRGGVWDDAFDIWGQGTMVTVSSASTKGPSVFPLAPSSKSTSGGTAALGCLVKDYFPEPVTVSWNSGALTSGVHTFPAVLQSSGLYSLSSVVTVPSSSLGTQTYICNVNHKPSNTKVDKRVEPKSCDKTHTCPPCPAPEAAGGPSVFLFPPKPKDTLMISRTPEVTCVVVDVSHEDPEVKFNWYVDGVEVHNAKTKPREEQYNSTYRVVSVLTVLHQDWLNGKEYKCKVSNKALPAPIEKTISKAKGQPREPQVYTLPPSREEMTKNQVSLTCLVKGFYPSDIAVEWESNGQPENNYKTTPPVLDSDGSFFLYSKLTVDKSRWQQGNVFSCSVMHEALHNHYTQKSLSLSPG
light: DIQMTQSPSSLSASVGDRVTITCRASQDINNYLAWFQQKPGKAPKSLIYTASSLHSGVPSKFSGSGSGTDFTLTISSLQPEDFATYYCQQYVSYPYTFGQGTKLEIKRTVAAPSVFIFPPSDEQLKSGTASVVCLLNNFYPREAKVQWKVDNALQSGNSQESVTEQDSKDSTYSLSSTLTLSKADYEKHKVYACEVTHQGLSSPVTKSFNRGEC
Turning to B2, in experiment [7], the binding result is “no binding (tested: about 67 nM)”.

B3: Antibody A (antibody, human IgG1, kappa, L234A L235A)
heavy: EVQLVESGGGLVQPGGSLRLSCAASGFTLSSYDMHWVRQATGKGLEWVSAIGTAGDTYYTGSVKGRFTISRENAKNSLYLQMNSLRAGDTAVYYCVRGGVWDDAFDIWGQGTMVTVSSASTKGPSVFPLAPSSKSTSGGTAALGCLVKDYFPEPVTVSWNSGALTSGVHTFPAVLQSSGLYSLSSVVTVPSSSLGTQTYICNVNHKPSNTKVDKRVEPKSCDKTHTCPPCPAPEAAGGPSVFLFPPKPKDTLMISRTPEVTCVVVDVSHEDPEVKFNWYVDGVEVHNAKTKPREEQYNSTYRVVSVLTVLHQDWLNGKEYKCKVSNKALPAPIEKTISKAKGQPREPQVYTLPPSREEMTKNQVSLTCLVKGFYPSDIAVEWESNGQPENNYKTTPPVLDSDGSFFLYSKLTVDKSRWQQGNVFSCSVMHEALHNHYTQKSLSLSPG
light: DIQMTQSPSSLSASVGDRVTITCRASQDINNYLAWFQQKPGKAPKSLIYTASSLHSGVPSKFSGSGSGTDFTLTISSLQPEDFATYYCQQYVSYPYTFGQGTKLEIKRTVAAPSVFIFPPSDEQLKSGTASVVCLLNNFYPREAKVQWKVDNALQSGNSQESVTEQDSKDSTYSLSSTLTLSKADYEKHKVYACEVTHQGLSSPVTKSFNRGEC
In the case of B3, the Kd in experiment [8] worked out at 78200 pM.

B4: Antibody B (antibody, human IgG1, kappa, L234A L235A, V domains shown)
VH: QVQLVQSGAEVKKPGASVKVSCKASGYTFTGNYMHWVRQAPGQGLEWMGWINPNSGGTNYAQKFQGRVTMTRDTSISTAYMELSRLRSDDTAVYYCVSGSGWYENYYYYGMDVWGQGTTVTVSS
VL: DIQMTQSPSSVSASVGDRVTITCRASQGISSWLAWYQQKPGKAPKLLIYAESSLQSGVPSRFSGSGSGTDFTLTISSLQPEDFATYYCQQANSFPLTFGGGTKVEIKR
B4 returned an EC50 in experiment [9] of 11800 pM.
